Experimental data published in patent US7244563B2, “Genes for plant fatty acid modifying enzymes associated with conjugated double bond formation” (E. I. du Pont de Nemours and Company, priority 2002, dated 2007).

Columns and labels:
soybean seeds = assay: Fatty acid composition of seeds of regenerated transgenic soybean plants; type: in vivo; conditions: for Eleostearic / Other / 16:0 / 18:0 / 18:1 / 18:2 / 18:3 / α-Parinaric: single soybean seed; for Eleostearic: includes cis-trans isomers of α-eleostearic acid (<1.5 wt %); for Other: primarily 20:0, 20:1, 22:0, and 22:1; for 16:0 / 18:0 / 18:1 / 18:2 / 18:3 / α-Parinaric: % of total oil weight
From the text: To examine the ability of the Momordica fatty acid modifying enzyme associated with conjugated double bond synthesis to function in seeds of crop plants, transgenic soybean embryos expressing this enzyme were regenerated into plants. The fatty acid compositions of segregating seeds from these plants were examined by GC and GC-MS as described in Example 4

[1] = tested on: Saccharomyces cerevisiae INVSc1 cells; assay: Expression in Saccharomyces cerevisiae, accumulation of fatty acids with conjugated double bonds; type: cell-based; conditions: 4 days at 16°
Protocol: The Impatiens balsamina clone ImpH8Fad2 was partially digested with the restriction enzymes EcoRI and XhoI. A resulting 1.5 kb DNA fragment containing the entire cDNA insert was purified by agarose gel electrophoresis. The cDNA insert was obtained from agarose gel by digestion with GELase™ (Epicentre Technologies) according to the manufacturer's instructions, ethanol precipitated, dried and resuspended in 20 μL of water. The purified cDNA was ligated into the EcoRI and XhoI sites of the Saccharomyces cerevisiae expression vector pYES2 (Invitrogen) using T4 DNA ligase (New England Biolabs). The resulting plasmid pYes2/ImpH8Fad2 was introduced into Saccharomyces cerevisiae INVSc1 (=Invitrogen)cells by lithium acetate-mediated transformation [Sherman F, Fink G R, Hicks J B, Methods in Yeast Genetics: A Laboratory Course Manual, Cold Spring Harbor Lab. Press, Plainview, N.Y. (1987)]. Transformed cells were selected by their ability to grow in the absence of uracil. Individual colonies of transformed cells were then grown for 2 days at 30° in growth media lacking uracil [0.17% (w/v) yeast nitrogen base without amino acids (Difco), 0.5% (w/v) ammonium sulfate, and 0.18% SC-URA (Bio101)] supplemented with glycerol and glucose to a final concentration of 5% (v/v) and 0.5% (w/v), respectively. Cells were then washed twice in the growth media described above that was supplemented instead with galactose to a final concentration of 2% (w/v). The washed cells were then diluted to O.D.600≈0.2 in the galactose-containing growth media that also contained Tergitol NP-40 (Sigma) at a concentration of 0.2% (w/v). Aliquots of these cells were grown without exogenous fatty acids or with the addition of either linoleic acid (18:2Δ^9cis,12cis) or α-linolenic acid (18:3Δ^9cis,12cis,15cis) at a final concentration of 2 mM. Following 4 days of growth at 16°, the S. cerevisiae cells were harvested and examined for the accumulation of fatty acids containing conjugated double bonds as described in Example 4. In cells grown in media containing linoleic acid, α-eleostearic acid was detected in amounts of up to 0.6% (w/w) of the total fatty acids.

[2] = media containing linoleic acid 2 mM
[3] = media containing α-linolenic acid 2 mM

B1: MomFad2: Momordica charantia fatty acid modifying enzyme associated with conjugated double bond formation, SEQ ID NO:4, cDNA SEQ ID NO:3 (protein, listed as Momordica charantia)
chain: MGGRGAIGVLRNGGGPKKKMGPGQGLGPGERITHARPPFSISQIKKAIPPHCFQRSLRRSFSYLLSDIALVSAFYYVADTYFHRLPHPLLHYLAWPVYWFCQGAVLTGMWGIAHDCGHHAFSDYQLVDDVVGFLIHSLVFVPYFSFKISHRRHHSNTSSVDRDEVFVPKPKAKMPWYFKYLTNPPARVFIIFITLTLGWPMYLTFNISGRYYGRFTSHFDPNSPIFSPKERVLVHISNAGLVATGYLLYRIAMAKGVGWLIRLYGVPLIVLNACVVLITALQHTHPSFPYYDSTEWDWLRGNLVTVDRDYGPIMNRVFHHITDTHVVHHLFPSMPHYNGKEATVAAKRILGEYYQFDGTPIWKAAWREFRECVYVEPDEDDGATSGSSSKGVFWYHNKL
Q: For B1, which Eleostearic (soybean seeds; Line 1) is on record?
A: 13.9 Weight %

Q: What about the Other (soybean seeds; Line 1) of the same molecule?
A: <2.0 Weight %

Q: What about the Eleostearic (soybean seeds; Line 2) of the same molecule?
A: 13.4 Weight %

Q: What about the Other (soybean seeds; Line 2) of the same molecule?
A: <2.2 Weight %

Q: And the Eleostearic (soybean seeds; Line 3)?
A: 11.6 Weight %

Q: What about the Other (soybean seeds; Line 3) of the same molecule?
A: <1.5 Weight %

Q: What about the “16:0” value (soybean seeds; transgenic Line 1) of the same molecule?
A: 8.8 Weight %

Q: And the “18:0” value (soybean seeds; transgenic Line 1)?
A: 3.6 Weight %

Q: What about the “18:1” value (soybean seeds; transgenic Line 1) of the same molecule?
A: 44.5 Weight %

Q: What about the “18:2” value (soybean seeds; transgenic Line 1) of the same molecule?
A: 25.7 Weight %

Q: And the “18:3” value (soybean seeds; transgenic Line 1)?
A: 1.0 Weight %

Q: What about the α-Parinaric (soybean seeds; transgenic Line 1) of the same molecule?
A: 0.5 Weight %

Q: And the “16:0” value (soybean seeds; transgenic Line 2)?
A: 8.4 Weight %

Q: And the “18:0” value (soybean seeds; transgenic Line 2)?
A: 3.5 Weight %

Q: What about the “18:1” value (soybean seeds; transgenic Line 2) of the same molecule?
A: 48.9 Weight %

Q: And the “18:2” value (soybean seeds; transgenic Line 2)?
A: 22.3 Weight %

Q: And the “18:3” value (soybean seeds; transgenic Line 2)?
A: 0.7 Weight %

Q: And the α-Parinaric (soybean seeds; transgenic Line 2)?
A: 0.4 Weight %

Q: And the “16:0” value (soybean seeds; transgenic Line 3)?
A: 9.7 Weight %

Q: And the “18:0” value (soybean seeds; transgenic Line 3)?
A: 3.8 Weight %

Q: And the “18:1” value (soybean seeds; transgenic Line 3)?
A: 47.2 Weight %

Q: And the “18:2” value (soybean seeds; transgenic Line 3)?
A: 24.7 Weight %

Q: What about the “18:3” value (soybean seeds; transgenic Line 3) of the same molecule?
A: 1.0 Weight %

Q: What about the α-Parinaric (soybean seeds; transgenic Line 3) of the same molecule?
A: 0.5 Weight %

Q: And the “α-eleostearic acid of the total fatty acids” value (soybean seeds; transgenic soybean seeds)?
A: more than 13%

Q: And the “α-parinaric acid of the total fatty acids” value (soybean seeds; transgenic soybean seeds)?
A: approximately 0.5%

Q: What about the “oleic acid (18:1) content of the total fatty acids” value (soybean seeds; transgenic soybean seeds, about 18 wt % in wild-type) of the same molecule?
A: ~50 wt %

Q: What about the “linolenic acid (18:3) content of the total fatty acids” value (soybean seeds; transgenic soybean seeds, nearly 9 wt % in wild-type) of the same molecule?
A: about 1 wt %

B2: ImpFad2: Impatiens balsamina fatty acid modifying enzyme associated with conjugated double bond formation, SEQ ID NO:2, cDNA SEQ ID NO:1 (protein, listed as Impatiens balsamina)
chain: MGEVGPTNRTKTKLDKQQESENRVPHEPPPFTLSDLKKAIPPHCFERSLVKSFYHVIHDIIILSFFYYVAANYIPMLPQNLRYVAWPIYWAIQGCVQLGILVLGHECGHHAFSDYQWVDDMVGFVLHSSQLIPYFSWKHSHRRHHSNTASIERDEVYPPAYKNDLPWFAKYLRNPVGRFLMIFGALLFGWPSYLLFNANGRLYDRFASHYDPQSPIFNNRERLQVIASDVGLVFAYFVLYKIALAKGFVWLICVYGVPYVILNGLIVLITFLQHTHPNLPRYDLSEWDWLRGALSTVDRDYGMLNKVFHNVTDTHLVHHLFTTMPHYRAKEATEVIKPILGDYYKFDDTPFLKALWKDMGKCIYVESDVPGKNKGVYWYNNDI
Q: For B2, which “α-eleostearic acid of the total fatty acids” value [1, 2] is on record?
A: up to 0.6 % (w/w)

Q: What about the α-parinaric acid detection [1, 2] of the same molecule?
A: no α-parinaric acid was detected

Q: And the α-eleostearic acid detection [1, 3]?
A: no α-eleostearic acid was detected

Q: And the “α-parinaric acid of the total fatty acids” value [1, 3]?
A: up to 0.9 % (w/w)
